Results published in patent US7829082B2, “Catheter composition and uses thereof” (Genentech, Inc., priority 2001, dated 2010).

Key:
[1] = Visual inspection of alteplase diluted in NS; type: physicochemical
Protocol: Alteplase (2 mg/vial rt-PA) was diluted to a concentration of 0.01, 0.025, 0.05, and 0.1 mg/mL final protein concentration in 0.9% NaCl (Normal Saline, NS)-containing IV bags (Baxter and/or Abbott, 250 mL). Specifically, rt-PA, protein bulk, was diluted to 1 mg/mL (50-mg vial formulation equivalent, 0.004% TWEEN 80™ surfactant) with filtered MILLI-Q™ water, or a 100-mg vial rt-PA was reconstituted to 1 mg/mL (0.008-0.011% TWEEN 80™ surfactant) with Sterile Water for Injection, USP (SWFI) using a 60-cc BD syringe and an 18 G needle directly inserted into the rubber septum of the vial at the center of the cake. The vial was gently mixed by slow inversions or rolling action until the cake was totally dissolved. IV diluent (0.9% NaCl, NS) was withdrawn and replaced with the same amount of the reconstituted or diluted 1 mg/mL rt-PA as follows:
After dilution into the IV bags (n=2 for each concentration), the bags were gently mixed by inversion (about 20-24 times). A 10-mL aliquot was withdrawn from the inlet port of the IV bag using a 10-cc BD syringe and 22 G needle. An aliquot (t=0) was dispensed directly into a 20-cc Type I clear glass vial for visual inspection. […]
Each aliquot was examined under a light box equipped with a black and white background. […] The color and clarity of the aliquots were recorded accordingly.

[2] = 2 mg of alteplase or 10,000 U of urokinase, dwell 2 hours, up to two treatments; p=0.013; Haire et al.; cited from earlier work
[3] = biological target: T1, in vitro clot consisting of plasminogen and fibrin (Homo sapiens, UniProt P00747+P02671+P02675+P02679); assay: Purified clot lysis activity for rt-PA; type: biochemical
T1 construct: Plasminogen kept frozen at or below −60° C. until use; purchased Biocell (fibrinogen); Calbiochem (thrombin)
T1 sequence (P00747 20-810 limits assumed): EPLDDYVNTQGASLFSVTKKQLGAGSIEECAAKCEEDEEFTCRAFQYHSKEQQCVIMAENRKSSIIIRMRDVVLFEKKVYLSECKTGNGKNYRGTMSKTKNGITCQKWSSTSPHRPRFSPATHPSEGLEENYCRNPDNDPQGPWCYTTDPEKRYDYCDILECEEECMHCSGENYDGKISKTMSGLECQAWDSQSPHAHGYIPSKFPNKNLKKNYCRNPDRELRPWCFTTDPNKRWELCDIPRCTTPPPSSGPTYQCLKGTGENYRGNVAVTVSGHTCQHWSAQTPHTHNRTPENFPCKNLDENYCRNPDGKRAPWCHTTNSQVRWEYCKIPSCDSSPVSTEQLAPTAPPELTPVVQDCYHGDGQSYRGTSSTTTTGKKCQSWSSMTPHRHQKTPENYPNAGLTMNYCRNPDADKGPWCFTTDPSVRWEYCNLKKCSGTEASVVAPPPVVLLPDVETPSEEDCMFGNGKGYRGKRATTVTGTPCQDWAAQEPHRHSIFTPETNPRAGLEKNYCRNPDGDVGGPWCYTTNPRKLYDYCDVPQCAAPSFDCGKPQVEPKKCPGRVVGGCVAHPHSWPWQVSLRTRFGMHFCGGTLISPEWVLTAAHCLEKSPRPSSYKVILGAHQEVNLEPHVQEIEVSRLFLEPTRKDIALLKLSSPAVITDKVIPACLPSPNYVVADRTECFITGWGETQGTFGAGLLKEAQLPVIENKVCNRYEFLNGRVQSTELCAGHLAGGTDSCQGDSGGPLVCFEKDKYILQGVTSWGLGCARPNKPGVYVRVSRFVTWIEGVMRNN
T1 sequence (P02671 36-629 limits assumed): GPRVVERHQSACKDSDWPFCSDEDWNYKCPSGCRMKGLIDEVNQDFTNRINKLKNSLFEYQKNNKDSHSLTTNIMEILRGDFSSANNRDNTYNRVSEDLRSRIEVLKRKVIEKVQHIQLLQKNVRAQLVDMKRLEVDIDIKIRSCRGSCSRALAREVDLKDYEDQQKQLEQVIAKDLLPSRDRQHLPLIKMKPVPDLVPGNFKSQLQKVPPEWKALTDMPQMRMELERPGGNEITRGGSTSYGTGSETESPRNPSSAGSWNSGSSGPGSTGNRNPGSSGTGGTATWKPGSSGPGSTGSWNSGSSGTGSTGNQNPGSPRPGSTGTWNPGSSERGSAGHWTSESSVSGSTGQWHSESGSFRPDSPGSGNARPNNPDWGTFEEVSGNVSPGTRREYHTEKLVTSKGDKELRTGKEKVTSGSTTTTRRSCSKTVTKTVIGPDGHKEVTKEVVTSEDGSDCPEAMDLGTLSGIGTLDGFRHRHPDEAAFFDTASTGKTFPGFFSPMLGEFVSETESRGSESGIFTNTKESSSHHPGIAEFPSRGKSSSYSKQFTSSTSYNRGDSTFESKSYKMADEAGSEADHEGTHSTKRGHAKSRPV
T1 sequence (P02675 45-491 limits assumed): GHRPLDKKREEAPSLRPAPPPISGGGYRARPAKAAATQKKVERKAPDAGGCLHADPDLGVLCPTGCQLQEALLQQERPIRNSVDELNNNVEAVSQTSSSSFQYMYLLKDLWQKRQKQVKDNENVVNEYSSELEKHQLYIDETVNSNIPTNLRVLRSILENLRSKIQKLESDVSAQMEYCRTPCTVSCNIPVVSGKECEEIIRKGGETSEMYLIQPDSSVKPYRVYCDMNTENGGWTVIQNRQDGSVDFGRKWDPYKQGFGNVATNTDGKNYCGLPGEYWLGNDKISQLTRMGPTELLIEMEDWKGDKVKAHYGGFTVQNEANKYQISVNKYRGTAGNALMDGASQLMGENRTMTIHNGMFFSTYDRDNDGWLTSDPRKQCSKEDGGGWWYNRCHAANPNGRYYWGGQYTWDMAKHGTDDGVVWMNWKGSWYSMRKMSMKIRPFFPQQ
T1 sequence (P02679 27-437 isoform P02679-2 limits assumed): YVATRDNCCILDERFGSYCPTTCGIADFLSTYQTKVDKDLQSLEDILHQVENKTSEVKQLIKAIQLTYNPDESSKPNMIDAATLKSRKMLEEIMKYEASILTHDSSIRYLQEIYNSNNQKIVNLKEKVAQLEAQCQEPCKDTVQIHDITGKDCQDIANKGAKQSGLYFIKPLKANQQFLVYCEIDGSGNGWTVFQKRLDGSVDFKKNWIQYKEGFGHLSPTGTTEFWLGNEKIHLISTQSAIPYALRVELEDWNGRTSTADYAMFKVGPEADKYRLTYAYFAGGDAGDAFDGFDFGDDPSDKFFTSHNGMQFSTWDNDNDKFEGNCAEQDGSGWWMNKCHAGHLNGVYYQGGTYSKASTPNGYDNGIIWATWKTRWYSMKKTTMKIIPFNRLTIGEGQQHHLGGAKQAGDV
Protocol: (7) Purified clot lysis activity for rt-PA. […] Samples were diluted to assay range (200-1000 ng/mL) in two concentrations with diluent. Dilutions were performed the day before the assay and diluted samples were stored at 2-8° C. until analysis the next day. rt-PA reference material was diluted similarly as an internal reference.
2. Purified Clot Lysis Test (Microcentrifugal Analyzer (Test 1) and Plate Reader (Test 2)):
The potency of the alteplase t-PA protein was assessed by the purified clot lysis assay described below. Samples were diluted to assay range (200-1000 ng/mL) in three or two concentrations with diluent. Dilutions were performed the day before the assay and diluted samples were stored at 2-8° C. until analysis the next day. Rt-PA reference material was diluted similarly as an internal reference.
The assay works as follows: Reagents are substances added to a solution of another substance to participate in a chemical reaction. In this case, contents of boat 1 will react with contents of boat 2 to form a standardized clot. […] As the clot breaks apart, there is a change in the absorbance (light) characteristics. The absorbance is plotted versus time. […]
The endpoint (lysis time) may be determined by a computer program or manually. For automatic calculation by computer, the endpoint is the time required to lyse the clot, which is determined automatically. For manual endpoint determination, the endpoint is defined as the first time point below 0.03 absorbance units where the change is less than 0.003 abs unit. Specifically, for manual determination, the endpoint was determined from the absorbance time data. The first absorbance point less than 0.0300 was located. The endpoint was determined as the time of the first absorbance value less than 0.0300 if the change in absorbance between the current absorbance and the subsequent absorbance was less than 0.0030. If the delta absorbance was greater than 0.0030, one moved to the next absorbance reading and determined the delta absorbance. […]
The mean lysis time for each standard curve point was calculated. […]

Row | Substance | Visual inspection ([1]; 0.1 mg/mL in NS, immediately after dilution and throughout the infusion period) | Visual inspection ([1]; diluted to 0.01, 0.025, and 0.05 mg/mL with NS, initially and after 24 hours of infusion (no filter) at room temperature) | Catheters with function restored [2] | Lytic activity in clot lysis effectiveness test ([3]; diluted down to 0.01 mg/mL in normal saline) | Lytic activity after storage ([3]; diluted to 0.01, 0.02, and 0.05% mg/mL in 0.9% NaCl IV bags, after 24 hours of storage at ambient conditions) | Specific activities by the clot-lysis activity assay ([3]; fractions collected over 24 hours, all concentrations in NS, in the majority of cases)
1 | alteplase t-PA: tissue plasminogen activator in a native form such as ACTIVASE® alteplase t-PA; in Example 7 diluted in 0.9% NaCl | slightly cloudy solution | colorless, clear to slightly opalescent solutions | 89% | lytically active | lytically active | greater than 90%
2 | urokinase | – | – | 59% | – | – | –
